Laboratory results taken from PMC8584343, “Probing the Structural Dynamics of the Activation Gate of KcsA Using Homo-FRET Measurements” (International Journal of Molecular Sciences, 2021).

Legend:
[1] = target: the molecule itself; assay: FRET or BRET; homo-FRET among TMR dyes on C116 of different subunits, read by steady-state and time-resolved fluorescence anisotropy; detergent-solubilised protein, 6 µM (monomer based), 5 mM DDM, 200 mM KCl (also RbCl or NaCl), pH 3.5-7.0, 25 °C; D:P 0.05 to 0.60
[2] = target: the molecule itself; assay: SDS-PAGE; oligomeric status of the purified protein checked by SDS-PAGE (13.5%)

B1: C-terminal truncated (Δ125) TMR-labeled G116C W67 KcsA (domain or fragment, S. lividans, UniProt P0A334 1-124, looked up)
chain: MPPMLSGLLARLVKLLLGRHGSALHFRAAGAATVLLVIVLLAGSYLAVLAERGAPGAQLITYPRALWFSVETATTVGYGDLYPVTLFGRLVAVVVMVAGITSFGLVTAALATFFVCREQERRGH
modifications: tetramethylrhodamine-5-maleimide (TMR) conjugated to cysteine 116; D:P = 0.60
notes: KcsA potassium channel from S. lividans after removal of the C-terminal domain (amino acids 125–160) by chymotrypsin; W67 background with G116C; The limit 124 follows from the stated removal of amino acids 125–160; If the His tag stood at the C-terminus it would be lost with the cleaved fragment; also called truncated protein; proteolytically cleaved TMR-labeled G116C W67 KcsA
binding result [1]: binds

B2: TMR-labeled G116C W26, 68, 87, 113F KcsA (full-length) (natural protein, S. lividans, UniProt P0A334 1-160, looked up)
chain: MPPMLSGLLARLVKLLLGRHGSALHFRAAGAATVLLVIVLLAGSYLAVLAERGAPGAQLITYPRALWFSVETATTVGYGDLYPVTLFGRLVAVVVMVAGITSFGLVTAALATFFVCREQERRGHFVRHSEKAAEEAYTRTTRALHERFDRLERMLDDNRR
modifications: tetramethylrhodamine-5-maleimide (TMR) conjugated to cysteine 116; final dye-to-protein molar ratio D:P 0.05 to 0.60, so not every subunit carries a dye
notes: KcsA potassium channel from S. lividans, full-length subunit, with four of the five Trp mutated to Phe (W67 left) and G116C for labelling; Homotetrameric channel; Plasmids pQE-60 and pQE-1 are named for G116C W67 and G116C WT; also called TMR-labeled G116C W67 KcsA; TMR conjugated G116C W67 KcsA; source: E. coli M15 (pRep4), purified (IMAC), labelled with tetramethylrhodamine-5-maleimide, …
stoichiometry N [2]: 4
